Our source for the EC50 of adenylate cyclase stimulation (cAMP) values is patent US6723841.

Common to all, as to experiment: cell-based or functional assay
For assay [1], the target named is human CRF1 receptor (human) (UniProt P34998).
Assay [2] has as its target T1, human CRF2α receptor (human) (UniProt Q13324).
T1 sequence: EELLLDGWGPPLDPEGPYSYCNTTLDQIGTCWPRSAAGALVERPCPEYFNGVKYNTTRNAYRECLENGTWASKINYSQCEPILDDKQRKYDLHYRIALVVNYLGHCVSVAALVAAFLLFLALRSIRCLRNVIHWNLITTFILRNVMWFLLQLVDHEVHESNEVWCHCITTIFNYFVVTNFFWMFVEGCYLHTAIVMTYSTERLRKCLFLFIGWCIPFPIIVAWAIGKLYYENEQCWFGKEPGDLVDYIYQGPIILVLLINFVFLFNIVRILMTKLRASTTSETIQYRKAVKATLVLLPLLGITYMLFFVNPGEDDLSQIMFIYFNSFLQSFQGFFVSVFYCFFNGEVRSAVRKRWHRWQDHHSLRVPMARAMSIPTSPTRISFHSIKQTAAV

The next assay deals with rat CRF2β receptor (rat).

Bridge positions count the residues as written; N and C are the ends. Ends that are not written are not given here.

Sequence of human CRF1 receptor (human) (P34998 24-415): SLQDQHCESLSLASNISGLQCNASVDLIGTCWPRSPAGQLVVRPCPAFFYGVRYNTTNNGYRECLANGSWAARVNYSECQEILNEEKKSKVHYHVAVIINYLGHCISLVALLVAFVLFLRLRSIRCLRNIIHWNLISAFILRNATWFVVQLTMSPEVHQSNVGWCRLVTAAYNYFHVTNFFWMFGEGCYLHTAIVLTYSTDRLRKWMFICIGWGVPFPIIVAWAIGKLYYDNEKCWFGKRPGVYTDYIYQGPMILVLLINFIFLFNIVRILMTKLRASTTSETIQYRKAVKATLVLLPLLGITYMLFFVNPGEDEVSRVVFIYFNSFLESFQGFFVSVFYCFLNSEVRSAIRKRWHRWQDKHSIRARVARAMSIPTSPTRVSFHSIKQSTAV

B1: r/hCRF(6-33) (peptide, UniProt P06850 159-186, looked up)
peptide: ISLDLTFHLLREVLEMARAEQLAQQAHS
Take B1: the EC50 of adenylate cyclase stimulation (cAMP) in assay [1] and in assay [2] was greater than 1000 nM throughout.

B2: ovine CRF (peptide, UniProt P01142 148-188, looked up)
Corticoliberin: SQEPPISLDLTFHLLREVLEMTKADQLAQQAHSNRKLLDIA
modifications: ends and bridges not checked
On to B2, for which the figures for the EC50 of adenylate cyclase stimulation (cAMP) in assay [1] and in assay [2] were 10 nM and 80 nM, respectively.

B3: bovine CRF (peptide, UniProt Q95MI6 148-188, looked up)
peptide: SQEPPISLDLTFHLLREVLEMTKADQLAQQAHNNRKLLDIA
On to B3, for which the figures for the EC50 of adenylate cyclase stimulation (cAMP) in assay [1] and in assay [2] were 30 nM and 100 nM, respectively.

B4: AVP (peptide, UniProt P01185 20-28, looked up, species assumed)
Arg-vasopressin: CYFQNCPRG-NH2
modifications: disulfide 1-6; ends not checked
As to B4, the EC50 of adenylate cyclase stimulation (cAMP) in assay [1] and in assay [2] was greater than 1000 nM in each case.

B5: deamidated bovine CRF (peptide, UniProt Q95MI6 148-188, looked up)
peptide: SQEPPISLDLTFHLLREVLEMTKADQLAQQAHNNRKLLDIA-OH
As for B5, the values for the EC50 of adenylate cyclase stimulation (cAMP) in assay [1] and in assay [2] were 1000 nM and greater than 1000 nM, respectively.

B6: VIP (peptide, UniProt P01282 125-152, looked up, species assumed)
Vasoactive intestinal peptide: HSDAVFTDNYTRLRKQMAVKKYLNSILN
modifications: ends and bridges not checked
B6: the EC50 of adenylate cyclase stimulation (cAMP) in assay [1] and in assay [2] was greater than 1000 nM each time.

B7: rat/human CRF (peptide, UniProt P06850 154-194, looked up)
peptide: SEEPPISLDLTFHLLREVLEMARAEQLAQQAHSNRKLMEII
Take B7: the EC50 of adenylate cyclase stimulation (cAMP) in assay [1] stood at 4 nM; in assay [2], 20 nM; with rat CRF2β receptor (rat) it was 1 nM.

B8: d-Phe r/hCRF(12-41) (peptide, UniProt P06850 165-194, looked up)
peptide: FHLLREVLEMARAEQLAQQAHSNRKLMEII
modifications: d-Phe (position not given)
Take B8: the EC50 of adenylate cyclase stimulation (cAMP) in assay [1] and in assay [2] was greater than 1000 nM in each case.

B9: hGRF (peptide, UniProt P01286 32-75, looked up)
peptide: YADAIFTNSYRKVLGQLSARKLLQDIMSRQQGESNQERGARARL
modifications: ends and bridges not checked
For the molecule B9, the EC50 of adenylate cyclase stimulation (cAMP) in assay [1] and in assay [2] was greater than 1000 nM throughout.

B10: Sauvagine (peptide, UniProt P01144 1-40, looked up)
peptide: QGPPISIDLSLELLRKMIEIEKQEKEKQQAANNRLLLDTI
Consider B10, for which the EC50 of adenylate cyclase stimulation (cAMP) in assay [1] worked out at 3 nM; in assay [2] it was 0.5 nM; with rat CRF2β receptor (rat) it was 0.4 nM.
